Data: patent US20160355553A1 (Janssen / Centocor, published 2016)

How the values were obtained:
Assay in all cases: FACS on HEK293F
[1] = molecular target: H1 FL HA A/Puerto Rico/8/1934 (influenza A virus H1N1, UniProt P03452 18-565)
[2] = molecular target: miniHA cluster1 (A/Brisbane/59/2007) (influenza A virus H1N1, UniProt A8C8J4 18-565)
[3] = molecular target: miniHA cluster1+2+3+4 (A/Brisbane/59/2007) (influenza A virus H1N1, UniProt A8C8J4 18-565)
H1-PR8-dH1 = H1-PR8-dH1 (influenza A virus H1N1, UniProt P03452 18-565)

Measured: binding result

B1: CR8057 (antibody, V domains shown)
VH: EVQLVESGGGLVQPGGSLRLSCAASGFTDSVIFMSWVRQAPGKGLECVSIIYIDDSTYYADSVKGRFTISRHNSMGTVFLEMNSLRPDDTAVYYCATESGDFGDQTGPYHYYAMDV
VL: QSALTQPASVSGSPGQSITISCTGSSGDIGGYNAVSWYQHHPGKAPKLMIYEVTSRPSGVSDRFSASRSGDTASLTVSGLQAEDEAHYYCCSFADSNILI
no binding (tested: 5 ug/ml): all assays above
